Source: US20230257454A1 (STAIDSON BEIJING BIOPHARMACEUTICALS, published 2023)

Key:
Experiment in all cases: ELISA on the coated C5a protein, antibody titrated, OD410
C5a-Y13A = target: T1, C5a-Y13A
T1 single chain: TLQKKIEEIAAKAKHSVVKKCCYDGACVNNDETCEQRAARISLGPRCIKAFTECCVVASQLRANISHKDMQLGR

C5a-K20A = target: T2, C5a-K20A
T2 single chain: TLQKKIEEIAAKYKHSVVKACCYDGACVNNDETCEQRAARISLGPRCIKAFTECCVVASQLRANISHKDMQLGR

C5a-V28R = target: T3, C5a-V28R
T3 single chain: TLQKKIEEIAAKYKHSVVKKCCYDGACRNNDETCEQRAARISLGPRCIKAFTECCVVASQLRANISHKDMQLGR

C5a-V28F = target: T4, C5a-V28F
T4 single chain: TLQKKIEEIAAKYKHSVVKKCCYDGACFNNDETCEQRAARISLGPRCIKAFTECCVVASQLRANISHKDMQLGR

C5a-N29A = target: T5, C5a-N29A
T5 single chain: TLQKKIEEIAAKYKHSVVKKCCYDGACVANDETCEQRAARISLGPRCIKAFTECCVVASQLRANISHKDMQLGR

C5a-Y23A = target: T6, C5a-Y23A
T6 single chain: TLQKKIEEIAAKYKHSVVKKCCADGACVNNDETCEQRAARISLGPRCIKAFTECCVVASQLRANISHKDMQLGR

C5a-V28A = target: T7, C5a-V28A
T7 single chain: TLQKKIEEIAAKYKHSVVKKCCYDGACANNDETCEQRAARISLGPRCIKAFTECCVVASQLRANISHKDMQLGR

C5a-C27A = target: T8, C5a-C27A
T8 single chain: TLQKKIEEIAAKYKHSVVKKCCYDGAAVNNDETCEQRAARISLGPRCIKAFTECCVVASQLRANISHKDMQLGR

C5a-T33A = target: T9, C5a-T33A
T9 single chain: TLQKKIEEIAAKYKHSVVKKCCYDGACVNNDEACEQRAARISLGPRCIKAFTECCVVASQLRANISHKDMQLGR

C5a-Q36A = target: T10, C5a-Q36A
T10 single chain: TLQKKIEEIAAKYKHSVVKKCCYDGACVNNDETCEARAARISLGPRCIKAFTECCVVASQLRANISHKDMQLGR

C5a-R62A = target: T11, C5a-R62A
T11 single chain: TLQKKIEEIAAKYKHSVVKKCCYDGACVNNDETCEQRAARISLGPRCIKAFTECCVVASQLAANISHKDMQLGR

C5a-E35A = target: T12, C5a-E35A
T12 single chain: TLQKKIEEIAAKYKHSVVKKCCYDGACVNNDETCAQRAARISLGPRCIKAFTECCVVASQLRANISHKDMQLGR

C5a-N30A = target: T13, C5a-N30A
T13 single chain: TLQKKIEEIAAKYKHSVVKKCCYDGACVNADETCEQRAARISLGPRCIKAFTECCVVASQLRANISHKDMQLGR

Measured: binding result

B1: Cab42-IgG1 (antibody, V domains shown)
VH: EMQLVESGGGLVQPGGSLRLSCAASGFTFSDYYMQWVRQAPGKGPEWVGLIRNKAVGETTQYAASVKGRFTISRDDSKNSVYLQMNSLKTEDTAVYYCVSRAGPPGLSWGQGVLVTVSS
VL: DIVMTQSPLSLPVTPGEPASISCRSSQSLLASDAYNYIDWYLQKPGQSPQLLIYGGSNRASGVPDRFSGSGSGTDFTLKISRVEAEDVGVYFCLQHRALPPTFGQGTKLEIK
notes: Full-length human IgG1; It was biotinylated in the peptide-Fc ELISA
binds: C5a-Y13A | C5a-K20A | C5a-V28R | C5a-V28F | C5a-N29A | C5a-Y23A | C5a-V28A | C5a-C27A | C5a-T33A | C5a-Q36A | C5a-R62A | C5a-E35A | C5a-N30A
